These results are taken from patent publication US20110300138A1 (published 2011).

Assay [1] has as its target TSH receptor (TSHR) coated on tubes (human) (UniProt P16473). The assay can be described thus: inhibition of 125I-K1-70 IgG binding to TSHR coated tubes; negative control 10 µg/mL in assay buffer.
The target is the same in assay [2]. The assay can be described thus: inhibition of 125I-K1-70 IgG binding to TSHR coated tubes; negative control 0.1 µg/mL in assay buffer.
The target of assay [3] is human thyroid stimulating hormone receptor (TSHR), full length (human) (UniProt P16473). As to the kind of experiment: 125I-K1-70 Fab (competitor) binding to TSHR coated tubes; negative control MAb 0.01 µg/mL in HBD serum.
Assay [4] concerns the target TSH receptor (TSHR), full length human, coated on tubes (human) (UniProt P16473). The assay can be described thus: inhibition of 125I-TSH binding to TSHR coated tubes; 0.01 µg/mL, diluted in assay buffer; mean of duplicates.
Assay [5] has as its target TSHR (full length) coated on tubes (human) (UniProt P16473). The assay can be described thus: inhibition of 125I-K1-18 Fab (competitor) binding to TSHR coated tubes; negative control 1 µg/mL in HBD serum.
For assay [6] the target is unchanged. The assay can be described thus: inhibition of 125I-K1-18 Fab (competitor) binding to TSHR coated tubes; negative control 1 µg/mL in assay buffer.
The target in assay [7] is TSH receptor (TSHR) coated on tubes (human) (UniProt P16473). As to the kind of experiment: inhibition of 125I-K1-70 IgG binding to TSHR coated tubes; negative control 1 µg/mL in HBD serum pool; duplicate determination.
In assay [8] the target is TSH receptor (TSHR), full length human, coated on tubes (human) (UniProt P16473). As to the kind of experiment: inhibition of 125I-K1-18 IgG binding to TSHR coated tubes; competitor 125I-K1-18 IgG; negative control sample at 100 µg/mL in assay buffer.
For assay [9], the target named is TSHR (full length) coated on tubes (human) (UniProt P16473). The assay can be described thus: inhibition of 125I-K1-18 Fab (competitor) binding to TSHR coated tubes; test sample 1 µg/mL in HBD serum.
For assay [10] the target is unchanged. As to the kind of experiment: inhibition of 125I-K1-18 Fab (competitor) binding to TSHR coated tubes; test sample 1 µg/mL in assay buffer.
For assay [11] the target is unchanged. The assay can be described thus: inhibition of 125I-K1-18 Fab (competitor) binding to TSHR coated tubes; test sample 10 µg/mL in assay buffer.
Assay [12] shares this target. As to the kind of experiment: inhibition of 125I-K1-18 Fab (competitor) binding to TSHR coated tubes; test sample 0.01 µg/mL in assay buffer.
The target of assay [13] is TSH receptor (full length human TSHR) (human) (UniProt P16473). As to the kind of experiment: competition ELISA: inhibition of M22 Fab-peroxidase (competitor) binding to TSHR coated wells; test sample at 1 µg/mL diluted in HBD serum pool. (In general: ELISA stands for enzyme-linked immunosorbent assay.)
Assay [14] shares this target. As to the kind of experiment: competition ELISA: inhibition of M22 Fab-peroxidase (competitor) binding to TSHR coated wells; test sample at 0.1 µg/mL diluted in HBD serum pool.
The target of assay [15] is TSH receptor (full length human TSHR) coated on tubes (human) (UniProt P16473). As to the kind of experiment: 125I-TSH binding inhibition read against NIBSC 90/672; mean over 10, 30 and 100 ng/mL, in serum.
For assay [16], the target named is TSH receptor (TSHR) coated on tubes (human) (UniProt P16473). As to the kind of experiment: inhibition of 125I-K1-70 IgG binding to TSHR coated tubes; sample 0.003 µg/mL in HBD serum pool; duplicate determination.
For assay [17], the target named is human thyroid stimulating hormone receptor (TSHR), full length (human) (UniProt P16473). The assay can be described thus: 125I-K1-18 Fab competition, TSHR coated tubes; 0.01 µg/mL in HBD.
Assay [18] deals with TSH receptor (TSHR), full length human, coated on tubes (human) (UniProt P16473). The assay can be described thus: inhibition of 125I-TSH binding to TSHR coated tubes; 0.1 µg/mL, diluted in assay buffer.
The target of assay [19] is thyroid stimulating hormone receptor (TSHR), full length, coated on tubes (human) (UniProt P16473). As to the kind of experiment: inhibition of 125I-TSH binding, TSHR coated tubes; antibody 0.01 µg/mL in HBD serum pool.
Assay [20] concerns the target TSH receptor (TSHR), full length human, coated on tubes (human) (UniProt P16473). The assay can be described thus: inhibition of 125I-TSH binding to TSHR coated tubes; 0.01 µg/mL, diluted in assay buffer.
Assay [21] shares this target. As to the kind of experiment: inhibition of 125I-TSH binding to TSHR coated tubes; 0.01 µg/mL, diluted in HBD serum pool.
Assay [22] addresses TSH receptor (TSHR) coated on tubes (human) (UniProt P16473). As to the kind of experiment: inhibition of 125I-K1-70 IgG binding to TSHR coated tubes; sample 100 µg/mL in assay buffer.
The target of assay [23] is thyroid stimulating hormone receptor (full length human TSHR) (human) (UniProt P16473). The assay can be described thus: ELISA, inhibition of TSH-biotin binding to TSHR coated wells; 0.01 µg/mL, diluted in HBD serum pool.
The target in assay [24] is human TSH receptor (full length) coated on ELISA plate wells (human) (UniProt P16473). The assay can be described thus: TSH-biotin binding inhibition ELISA, TSHR coated wells; 0.1 µg/mL in assay buffer + 100 µg/mL 5B3 IgG.
The target in assay [25] is TSH receptor (TSHR), full length human, coated on tubes (human) (UniProt P16473). The assay can be described thus: inhibition of 125I-K1-18 IgG (competitor) binding to TSHR coated tubes; test sample at 100 µg/mL in assay buffer.
For assay [26], the target named is thyroid stimulating hormone receptor (full length human TSHR) (human) (UniProt P16473). The assay can be described thus: ELISA: inhibition of M22 Fab-peroxidase (competitor) binding to TSHR coated wells; 1 µg/mL, diluted in HBD serum pool.
Assay [27] shares this target. As to the kind of experiment: ELISA: inhibition of M22 Fab-peroxidase (competitor) binding to TSHR coated wells; 100 µg/mL, diluted in HBD serum pool.

Take 5B3 IgG (antibody): the Inhibition of binding (%) was -2.1% in assay [1]; 1% in assay [2]; -5.3% in assay [3]; -5.8% in assay [4]; -3.1% in assay [5]; -0.9% in [6]. For the same molecule, the figures for the Inhibition of binding (%) in assay [7] and in assay [8] were 0% and 6.7%, respectively.
As for 9D33 IgG (antibody), the Inhibition of binding (%) in assay [9] was found to be 64.8%; in [10], 66.5%; in assay [11] it was 69.5%; in assay [12], 7.9%; in assay [13], 57.8%; in assay [14], 24.1%.
In assay [15], M22 IgG (antibody) yielded a mean units/mg of 131 units/mg. In assay [16], the Inhibition of binding (%) is 6.2%.

B1: 5C9 IgG (antibody, from another filing, V domains shown)
VH: EVQLVESGGGLIQPGGSLRLSCAASGFTVSSNYMSWVRQAPGKGLEWVSVTYSGGSTSYADSVKGRFTISRDNSKNTLYLQMNSLRAEDTAVYYCARGGRYCSSISCYARSGCDYWGQGTLVTVSS
VL: AIQMTQSPSSLSASVGDRVTITCRASQSISNYLNWYQQKPGKAPKLLIYAASSLQSGVPSRFSGSGSGTDFTLTISSLQPEDFATYYCQQSYSSPSTTFGQGTKLEIK
B1: the Inhibition of binding (%) was 5.7% in [17]; 24.4% in assay [18]; 4.1% in assay [19]; 8.3% in assay [20]; -5.5% in [21]; 93.3% in [22]. Also, the Inhibition of binding (%) in [23] was -2.6%; in assay [25], 91.3%; in [26] it was 7.8%; in [27], 19.6%. In [24], the % inhibition of TSH-biotin binding was 36.3%.
